From IntAct's records for PubMed 24165324

Molecular target: gsk3b_human GSK3B (UniProt P49841)
Chain of UniProt P49841 (P49841 whole entry, looked up): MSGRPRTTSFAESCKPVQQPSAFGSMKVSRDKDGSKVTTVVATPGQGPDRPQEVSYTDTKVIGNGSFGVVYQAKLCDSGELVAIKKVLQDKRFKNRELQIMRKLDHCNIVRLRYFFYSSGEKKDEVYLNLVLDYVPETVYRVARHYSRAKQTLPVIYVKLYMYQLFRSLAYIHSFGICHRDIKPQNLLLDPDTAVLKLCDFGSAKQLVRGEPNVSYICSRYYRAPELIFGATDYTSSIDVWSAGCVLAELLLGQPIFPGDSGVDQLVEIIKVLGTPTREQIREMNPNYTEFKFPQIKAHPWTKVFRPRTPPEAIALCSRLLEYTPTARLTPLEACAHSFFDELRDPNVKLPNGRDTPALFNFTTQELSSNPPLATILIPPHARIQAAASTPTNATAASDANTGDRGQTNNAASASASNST

Substance: Leucine-rich repeat serine/threonine-protein kinase 2 (Homo sapiens), Q5S007 G2019S
- effect of a mutation on the interaction: increasing interaction
